{"source": "patent US11155586B2", "about": "“Cystine knot scaffold platform” (Genentech, Inc., priority 2015, dated 2021)", "key": {"LRP6 E1E2": {"target": "T1, LRP6 E1E2 (Homo sapiens, UniProt O75581)", "T1 sequence (O75581 20-630 limits assumed)": "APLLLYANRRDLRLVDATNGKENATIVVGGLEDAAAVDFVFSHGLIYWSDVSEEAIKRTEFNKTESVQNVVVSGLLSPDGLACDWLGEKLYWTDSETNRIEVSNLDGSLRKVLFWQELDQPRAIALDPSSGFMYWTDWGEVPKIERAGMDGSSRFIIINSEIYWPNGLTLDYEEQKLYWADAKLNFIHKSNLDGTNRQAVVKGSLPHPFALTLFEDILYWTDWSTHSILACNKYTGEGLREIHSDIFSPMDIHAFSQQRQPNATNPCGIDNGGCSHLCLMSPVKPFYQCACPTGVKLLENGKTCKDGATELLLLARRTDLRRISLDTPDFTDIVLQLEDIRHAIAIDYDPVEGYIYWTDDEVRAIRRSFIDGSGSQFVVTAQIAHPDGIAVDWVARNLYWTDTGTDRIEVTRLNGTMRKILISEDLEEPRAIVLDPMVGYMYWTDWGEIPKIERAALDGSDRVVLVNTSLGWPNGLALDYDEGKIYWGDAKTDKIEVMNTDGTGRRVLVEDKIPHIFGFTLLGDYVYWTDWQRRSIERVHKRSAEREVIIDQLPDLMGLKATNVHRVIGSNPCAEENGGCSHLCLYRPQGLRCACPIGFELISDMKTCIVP", "experiment": "Phage selection / spot phage ELISA against LRP6 E1E2", "format": "binding", "procedure": "After four rounds of binding selection, individual phage clones were picked and inoculated into 450 μl 2YT media containing 50 µg/ml Carbenecillin and M13-KO7 helper phage in 96-well blocks, which were grown at 37° C. overnight. The supernatant was analyzed with spot phage ELISA as follows: hVEGF(8-109) or BSA were coated on 384-well MAXISORP™ immunoplates and phage supernatant diluted (1:3) with PBT buffer was added to the wells. The plates were washed and bound phage was detected with anti-M13-HRP followed by TMB substrate. In these assays, phage binding to BSA alone was tested in parallel to assess background binding. Clones whose binding signals for hVEGF-A (8-109) were more than 3 times higher than to BSA (background) were considered positive. Positive clones were subjected to DNA sequence analysis.\nThe naïve EETI-II libraries described in Example 2A were cycled through rounds of selection against LRP6 E1E2 protein. Twenty-two unique clones were identified which bound LRP6 E1E2 (Table 46). These initial hits contained variations in amino acid content within loops 1 and 5. […] The newly evolved variants recapitulated a motif which occurs in natural ligands."}, "hVEGF-A (8-109) [1]": {"target": "T2, hVEGF-A (8-109) (Homo sapiens, UniProt P15692)", "T2 sequence (P15692 34-135 isoform P15692-4)": "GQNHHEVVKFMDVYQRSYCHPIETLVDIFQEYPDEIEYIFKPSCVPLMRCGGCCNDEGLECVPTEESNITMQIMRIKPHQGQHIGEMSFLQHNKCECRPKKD", "experiment": "SPR binding assay (BIACORE 3000, 37° C.)", "conditions": "SPR affinity (Table 37) and cellular IC50 (Table 38), vs variant without F8Y", "method_in_brief": "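VEGF-A, biotinylated and captured on streptavidin sensor or amine-coupled to CM5 at pH 5.0, to about 400 RU. Peptide concentration series in HBS-EP with 0.1% DMSO injected at […]; kinetics and affinities from 1:1 binding model fits.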"}, "Solubility": {"experiment": "Solubility", "format": "physicochemical", "conditions": "vs variant without F8Y; read-out: improvement of solubility by F8Y substitution", "text": "In variants derived from VEGF_CKP9.54 (such as the variants in Table 35) the amino acid at position 8 is Phe. Therefore, we sought to mutate Phe8 to Tyr I in some of the variants in Table 35, with the goal of improving affinity and/or solubility of the resulting F8Y variant. […] See Table 37, in which the binding affinities of certain variants (as determined by surface plasmon resonance) are compared, and Table 38 in which the potencies of certain variants (as determined by cellular IC50) are compared. […] VEGF_CKP9.54.90.67.F8Y was selected for further follow-up studies."}, "[2]": {"target": "Wnt1 signaling (Homo sapiens)", "sequence (O75581 20-1613)": "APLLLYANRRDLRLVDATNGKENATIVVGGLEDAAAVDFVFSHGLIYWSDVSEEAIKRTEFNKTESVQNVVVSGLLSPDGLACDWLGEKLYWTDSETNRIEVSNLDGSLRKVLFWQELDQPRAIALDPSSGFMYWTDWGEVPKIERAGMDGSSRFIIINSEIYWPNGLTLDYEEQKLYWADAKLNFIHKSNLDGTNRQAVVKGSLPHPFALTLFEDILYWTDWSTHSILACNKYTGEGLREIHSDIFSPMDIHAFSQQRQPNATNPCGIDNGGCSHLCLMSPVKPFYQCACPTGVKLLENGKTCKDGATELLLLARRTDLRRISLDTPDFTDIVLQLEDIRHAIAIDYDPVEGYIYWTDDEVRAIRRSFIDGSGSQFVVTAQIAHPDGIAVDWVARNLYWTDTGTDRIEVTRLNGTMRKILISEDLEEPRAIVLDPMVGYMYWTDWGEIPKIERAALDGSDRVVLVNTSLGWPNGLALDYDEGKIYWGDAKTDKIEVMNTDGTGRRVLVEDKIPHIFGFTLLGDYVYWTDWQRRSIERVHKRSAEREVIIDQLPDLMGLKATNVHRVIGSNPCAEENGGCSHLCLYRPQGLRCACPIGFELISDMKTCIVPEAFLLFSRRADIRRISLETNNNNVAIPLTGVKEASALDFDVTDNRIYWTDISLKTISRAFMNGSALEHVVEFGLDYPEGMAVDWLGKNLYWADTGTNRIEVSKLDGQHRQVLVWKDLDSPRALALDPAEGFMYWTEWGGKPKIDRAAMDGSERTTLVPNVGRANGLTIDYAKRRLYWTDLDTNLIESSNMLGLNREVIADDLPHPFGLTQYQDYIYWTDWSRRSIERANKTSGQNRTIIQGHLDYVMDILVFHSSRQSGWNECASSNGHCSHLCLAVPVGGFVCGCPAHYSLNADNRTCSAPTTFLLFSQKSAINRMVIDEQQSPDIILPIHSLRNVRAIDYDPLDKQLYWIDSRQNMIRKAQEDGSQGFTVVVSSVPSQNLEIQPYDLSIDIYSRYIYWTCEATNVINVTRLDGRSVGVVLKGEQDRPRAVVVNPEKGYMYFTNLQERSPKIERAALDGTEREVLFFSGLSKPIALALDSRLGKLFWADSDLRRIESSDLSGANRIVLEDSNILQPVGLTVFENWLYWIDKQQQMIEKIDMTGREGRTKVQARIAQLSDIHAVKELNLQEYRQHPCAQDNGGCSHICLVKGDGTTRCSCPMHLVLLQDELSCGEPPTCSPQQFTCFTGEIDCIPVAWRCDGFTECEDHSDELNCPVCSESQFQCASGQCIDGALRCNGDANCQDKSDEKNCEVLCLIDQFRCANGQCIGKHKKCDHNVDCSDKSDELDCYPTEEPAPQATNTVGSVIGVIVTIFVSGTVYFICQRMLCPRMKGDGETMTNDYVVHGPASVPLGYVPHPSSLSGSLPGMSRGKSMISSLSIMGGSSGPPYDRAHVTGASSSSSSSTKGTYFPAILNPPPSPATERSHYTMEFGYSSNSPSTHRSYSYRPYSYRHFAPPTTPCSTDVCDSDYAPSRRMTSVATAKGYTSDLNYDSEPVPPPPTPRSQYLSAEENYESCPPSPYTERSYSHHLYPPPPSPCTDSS", "experiment": "Wnt luciferase reporter assay in HEK293 cells, Wnt1", "format": "cell-based", "procedure": "HEK293 cells stably transfected with a firefly luciferase Wnt reporter (Gong et al. (2010) PLoS ONE 59: e12682). and pRL-SV40 Renilla luciferase (Promega) were grown to 90% confluence in DMEM:F12 (50:50) supplemented with 10% FBS, 2 mM GLUTAMAX™ and 40 μg/ml hygromycin. Cells were incubated in a 5% CO2 humidified incubator at 37° C. for 24 h. Following the incubation, the cells were trypsinized (0.05% Gibco 15400-54 in PBS) then diluted to 4×10^5 cells/ml in DMEM:F12 (50:50) supplemented with 10% FBS, 2 mM GLUTAMAX™. 20,000 cells were loaded into individual wells of white microtest 96-well optilux plates (catalog no. 353947) and incubated for ˜24 h. Each well was transfected using FUGENE® HD with Wnt1-pCDNA3.2 (5 ng/well) or Wnt3a-pCDNA3.2 (25 ng/well) then grown for 24 h. […]\nLuciferase response in all assays was then measured with Promega's DUAL-GLO® kit according to the manufacturer's instructions, except using half the volume of each reagent. Firefly luminescence and Renilla luminescence were measured on a Perkin Elmer ENVISION™ Multilabel Reader. The ratios of firefly luminescence: Renilla luminescence were calculated and normalized to the ratio in control cells expressing or treated with the indicated Wnt protein. […] Statistical significance was determined using the Holm-Sidak method, with alpha=5.000%."}, "hVEGF-A (8-109) [3]": {"target": "T2, hVEGF-A (8-109)", "experiment": "Phage competition ELISA", "format": "binding", "conditions": "phage competition ELISA, FIG. 15"}, "mouse or rat VEGF-A": {"test_system": "mouse or rat VEGF-A", "conditions": "cited from earlier work"}}, "note": "No end group written: not given here.", "data": [{"compound": "LRP6_CKP6 (GCRNSIKRCKQNSDCLAGCVCSVGHGCG)", "values": [{"measurement": "S/N (signal to noise ratio as compared to BSA control)", "setting": "LRP6 E1E2; LRP6 E1E2 vs BSA control", "value": 37.36}, {"measurement": "ELISA", "setting": "LRP6 E1E2; binding signal against LRP6 E1E2", "value": 3.10}]}, {"compound": "CC[C@H](C)[C@H](NC(=O)[C@@H]1CSSC[C@H](NC(=O)CN)C(=O)N[C@@H](CC(N)=O)C(=O)N[C@@H]([C@@H](C)CC)C(=O)N[C@@H](CCSC)C(=O)N[C@@H](CC(C)C)C(=O)N2CCC[C@H]2C(=O)N[C@@H](Cc2ccc(O)cc2)C(=O)N[C@@H](Cc2c[nH]c3ccccc23)C(=O)NCC(=O)N[C@H]2CSSC[C@H](NC(=O)[C@H](CCC(=O)O)NC(=O)[C@H](Cc3ccccc3)NC(=O)[C@H](CC(=O)O)NC(=O)[C@H](CCCNC(=N)N)NC(=O)CNC2=O)C(=O)N[C@@H](CCSC)C(=O)N[C@@H](CCC(=O)O)C(=O)N[C@@H](CCC(N)=O)C(=O)N1)C(=O)N[C@H]1CSSC[C@@H](C(=O)NCC(=O)O)NC(=O)[C@H](CO)NC(=O)[C@H](CCC(N)=O)NC(=O)[C@H](Cc2ccc(O)cc2)NC(=O)[C@H](Cc2ccc(O)cc2)NC(=O)[C@H](CCC(N)=O)NC1=O", "note": "[VEGF_CKP9.54.90.67.F8Y]", "values": [{"measurement": "effect of F8Y mutation on affinity/potency", "setting": "hVEGF-A (8-109) [1]", "value": "modest improvement"}, {"measurement": "solubility", "setting": "Solubility", "value": "~2000", "unit": "µg/mL"}]}, {"compound": "R19: LRP6 E1E2-binding EETI-II variant generated in soluble folded form (GCSNRVKVRACKQDSDCLAGCVCGPNGFCG; ends and bridges not checked; also: three disulfides, pairing not given here)", "values": [{"measurement": "selectivity for Wnt1 over Wnt3a signaling", "setting": "[2]", "value": 11, "unit": "fold"}]}, {"compound": "GCNIMLPFWGCGQSFECLAGCICQYYQSCGTR [9.54.1-36]", "values": [{"measurement": "improvement of binding affinity for hVEGF-A (8-109) compared to parent clone", "setting": "hVEGF-A (8-109) [3]", "value": "approximately 10 fold"}]}, {"compound": "bevacizumab", "values": [{"measurement": "binding to mouse or rat VEGF-A", "setting": "mouse or rat VEGF-A", "value": "do not bind"}]}, {"compound": "GCNIMLPFWGCGQSFECLAGCICQYYQSCGVH [9.54.1-90]", "values": [{"measurement": "improvement of binding affinity for hVEGF-A (8-109) compared to parent clone", "setting": "hVEGF-A (8-109) [3]", "value": "approximately 10 fold"}]}, {"compound": "9.54-28: C-terminal two-residue extension variant based on 9.54 (Table 39) (GCNIMLPFWGCKQDFDCLAGCICQYYQSCGFH)", "values": [{"measurement": "improvement of binding affinity for hVEGF-A (8-109) compared to parent clone", "setting": "hVEGF-A (8-109) [3]", "value": "approximately 10 fold"}]}, {"compound": "ranibizumab", "values": [{"measurement": "binding to mouse or rat VEGF-A", "setting": "mouse or rat VEGF-A", "value": "do not bind"}]}]}
